Results taken from article PMC10418980, “Synthesis and Evaluation of ^177Lu-DOTA-PD-L1-i and ^225Ac-HEHA-PD-L1-i as Potential Radiopharmaceuticals for Tumor Microenvironment-Targeted Radiotherapy” (International Journal of Molecular Sciences, 2023).

Legend:
[1] = test system: HCC827 human lung cancer cells (PD-L1 positive) vs C6 mouse glioma cells (PD-L1 negative); experiment: Cellular uptake assay; type: cell-based; conditions: 1 × 10^5 cells/tube in PBS pH 7, 37 °C, 1 h; 177Lu 4 kBq, 225Ac 0.04 kBq; NaI(Tl) counting; n = 6 / n = 3 (method)
Description: HCC827 human lung cancer (PD-L1 positive) and C6 mouse glioma (PD-L1 negative) cell lines were cultured in RPMI-1640 medium with penicillin and streptomycin (100 µg/mL) and fetal bovine serum (15%) in 5% CO2 at 37 °C. Cells diluted in PBS (pH 7) (1 × 10^5 cells/tube) received two different treatments: (a) ^177Lu-DOTA-PD-L1-i (4 kBq) (n = 3) and (b) ^225Ac-HEHA-PD-L1-i (0.04 kBq) (n = 3). Cells were incubated with each treatment at 37 °C for 1 h. After incubation, tubes were measured in a NaI(Tl) detector to determine the initial activity (100%). The tubes were centrifuged at 500× g for 10 min. Then, a mixture of acetic acid/0.5 M NaCl was added, and the centrifugation was repeated. The liquid was removed, and the button activity was measured, corresponding to the percentage of activity captured by the cells regarding the initial activity.

[2] = Serum stability by radio-HPLC; type: in vitro ADME, human; conditions: diluted in human serum (5x), 37 °C, 72 h; reversed-phase C18 radio-HPLC; n = 3; read-out: radiochemical purity after 72 h in human serum
Description: (§1) The radiochemical purity of the radioconjugates was determined by reversed-phase HPLC (Waters) with radiometric and UV-vis detectors. The analysis was carried out with a Discovery C18 column (particle size: 5 µm, length: 25 cm, diameter: 4.6 mm). A linear gradient (rate flow: 1 mL/min) of CH3CN-0.1% TFA (B)/H2O-0.1%TFA (A), from 100% to 10% of A in 30 min, was used. For ^225Ac-HEHA-PD-L1-i, fractions of 1.0 mL were collected, and the activity was evaluated in a NaI(Tl) detector (Auto In-v-tron 4010; NML Inc., Houston, TX, USA).
(§2) The ^225Ac-HEHA-PD-L1-i and ^177Lu-DOTA-PD-L1-i stability was evaluated in the medium they were obtained after labeling (water/ascorbic acid/sodium acetate) at 0.33, 3, 24, 48, and 72 h with radio-HPLC, as previously described. The conjugate solutions were diluted in human serum (5x) for stability assessment. The conjugates (n = 3) were incubated at 37 °C, and samples were taken at 0.33, 3, 24, 48, and 72 h.

[3] = test system: healthy mice; experiment: Biodistribution in healthy mice; type: in vivo, Nu/Nu mice; conditions: tail vein, 3.7 MBq 177Lu or 3.7 kBq 225Ac, 0.5-96 h, n = 3
Description: (§3) Under an approved protocol (No. 07-2018-2021), all animal procedures followed the ethical regulations for handling laboratory animals (NOM-062-ZOO-1999) and the Institutional Animal Care and Use Committee requirements. Male Nu/Nu (UPEAL, […], I.PN., Mexico City, Mexico) mice aged 6–8 weeks were maintained in a pathogen-free barrier facility. Mice were injected with 3.7 MBq (50 µL) of ^177Lu DOTA-PD-L1-I or 3.7 kBq (50 µL) of ^225Ac-HEHA-PD-L1-i in the tail vein and sacrificed at 0.5, 1, 3, 24, 72, and 96 h (n = 3). The heart, lungs, liver, pancreas, spleen, kidneys, small intestine, brain, and stomach were dissected to be measured in a NaI(Tl) radioactivity detector. The results are expressed as the percentage of injected dose (%ID) per organ. Blood samples were also extracted, and the activity was recorded as %ID/g. A second group of mice was inoculated intravenously with 1 × 10^6 HCC827 cells. The animals were treated with 3.7 MBq (50 µL) of ^177Lu DOTA-PD-L1-i (n = 3) or 3.7 kBq (50 µL) of ^225Ac-HEHA-PD-L1-i (n = 3) via tail vein injection on day five post-tumor cell inoculation. The animals were dissected as described above. In the case of ^177Lu DOTA-PD-L1-i, radioisotopic/X-ray in vivo/ex vivo images were obtained in a Preclinical Imaging System (Bruker, XTREME). For in vivo imaging, mice were anesthetized with oxygen and 2% isoflurane.

[4] = test system: mice intravenously injected with HCC827 lung cancer cells (PD-L1+); experiment: Biodistribution and biokinetic models in mice with HCC827 lung micrometastases; type: in vivo, Nu/Nu mice
Description: as §3
The %ID values were used to obtain the biokinetic models ( qht ). The Ah(t) functions were obtained by decay-correcting the biokinetic models, that is, by adding to the biological constant (λB ) the radioactive constant (λR ), as follows (Equation (1)):(1) At=Be^−(λR+λB)t+Ce^−(λR+λB)t+De^−(λR+λB)t

[5] = Stability in labeling medium (water/ascorbic acid/sodium acetate) by radio-HPLC; type: physicochemical; conditions: injectable-grade water/ascorbic acid/sodium acetate; 72 h after labeling (225Ac-HEHA: 72 h after purification); reversed-phase C18 radio-HPLC (225Ac: 1 mL fractions counted in NaI(Tl) detector)
Description: as §1, §2

[6] = lungs invaded with HCC827 cancer cells

CCCC[C@H]1C(=O)N(C)[C@@H](CCCC)C(=O)N[C@@H](CCCNC(=S)Nc2ccc(C[C@H]3CN(CC(=O)O)CCN(CC(=O)O)CCN(CC(=O)O)CCN3CC(=O)O)cc2)C(=O)N[C@H](C(=O)NCC(N)=O)CSCC(=O)N[C@@H](Cc2ccc(O)cc2)C(=O)N(C)[C@@H](C)C(=O)N[C@@H](CC(N)=O)C(=O)N2CCC[C@H]2C(=O)N[C@@H](Cc2c[nH]cn2)C(=O)N[C@@H](CC(C)C)C(=O)N2C[C@H](O)C[C@H]2C(=O)N[C@@H](Cc2c[nH]c3ccccc23)C(=O)N[C@@H](CO)C(=O)N[C@@H](Cc2cn(C)c3ccccc23)C(=O)N1C [^177Lu-DOTA-PD-L1-i, metal not drawn]
uptake in HCC827 cells relative to C6 cells [1]: approximately fourteen
remaining at 72 h [2]: > 97.5%
biodistribution profile in healthy mice [3]: rapid blood clearance with renal and hepatobiliary elimination and no accumulation in normal tissues
λ, kidney, fast phase ([4]; kidneys, biokinetic model): 3.65
λ, kidney, slow elimination slope ([4]; kidneys, biokinetic model): 0.009
half-life, kidney, slow elimination slope ([4]; kidneys, t1/2 = ln2/λ): 77 h
half-life, kidney, fast phase ([4]; kidneys, t1/2 = ln2/λ, 177Lu 3.7 MBq, 225Ac 3.7 kBq i.v.): 0.19 h
λ, liver, fast phase ([4]; liver, biokinetic model): 1.23
λ, liver, slow phase ([4]; liver, biokinetic model): 0.01
fraction of activity taken up in the liver cleared rapidly ([4]; liver, fast phase (hepatobiliary elimination), 3.7 MBq i.v.): seventy-four
fraction of activity taken up in the liver cleared slowly ([4]; liver, slow phase): twenty-six
half-life, liver, fast phase ([4]; liver, t1/2 = ln2/λ): 0.56 h
half-life, liver, slow phase ([4]; liver, t1/2 = ln2/λ, 177Lu 3.7 MBq, 225Ac 3.7 kBq i.v.): 69 h
fraction of lung uptake activity with the long half-life [4, 6]: Ninety
fraction of lung uptake activity with the short half-life [4, 6]: ten
half-life, lung, long component [4, 6]: 346.5 h
half-life, lung, short component [4, 6]: 17.3 h
radiochemical purity after 72 h in water [5]: greater than 97.5 ± 0.5%
